Results reported in US20190177418A1.

What was measured:
[1] = target: mouse TrkB, endogenous on mouse cortical neurons and mouse embryonic stem cell line (mouse) (UniProt P15209); experiment: cell-based or functional assay
[2] = target: human TrkB (tropomyosin receptor kinase B) expressed on CHO reporter cells (human) (UniProt Q16620); experiment: cell-based or functional assay
Chain of UniProt Q16620 (Q16620 32-822): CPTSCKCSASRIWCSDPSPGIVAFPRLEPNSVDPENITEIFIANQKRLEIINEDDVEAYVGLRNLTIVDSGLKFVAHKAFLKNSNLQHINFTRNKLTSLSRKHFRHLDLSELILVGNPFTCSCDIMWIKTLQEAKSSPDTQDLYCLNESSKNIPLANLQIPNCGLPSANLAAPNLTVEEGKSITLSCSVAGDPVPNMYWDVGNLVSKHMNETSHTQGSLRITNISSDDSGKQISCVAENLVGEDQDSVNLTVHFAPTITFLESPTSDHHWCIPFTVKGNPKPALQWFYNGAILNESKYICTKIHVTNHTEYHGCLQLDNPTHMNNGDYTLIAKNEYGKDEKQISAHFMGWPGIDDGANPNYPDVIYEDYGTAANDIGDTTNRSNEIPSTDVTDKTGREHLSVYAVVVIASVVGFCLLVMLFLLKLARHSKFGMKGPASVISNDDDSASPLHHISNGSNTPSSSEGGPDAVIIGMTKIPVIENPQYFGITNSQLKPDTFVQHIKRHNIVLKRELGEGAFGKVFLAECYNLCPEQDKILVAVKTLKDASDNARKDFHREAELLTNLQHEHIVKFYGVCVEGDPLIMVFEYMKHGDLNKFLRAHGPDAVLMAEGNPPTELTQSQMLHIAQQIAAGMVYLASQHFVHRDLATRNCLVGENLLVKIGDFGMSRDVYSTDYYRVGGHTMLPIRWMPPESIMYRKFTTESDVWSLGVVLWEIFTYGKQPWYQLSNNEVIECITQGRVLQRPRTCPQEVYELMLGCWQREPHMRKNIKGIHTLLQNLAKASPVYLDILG

Chain of UniProt P15209 (P15209 32-821): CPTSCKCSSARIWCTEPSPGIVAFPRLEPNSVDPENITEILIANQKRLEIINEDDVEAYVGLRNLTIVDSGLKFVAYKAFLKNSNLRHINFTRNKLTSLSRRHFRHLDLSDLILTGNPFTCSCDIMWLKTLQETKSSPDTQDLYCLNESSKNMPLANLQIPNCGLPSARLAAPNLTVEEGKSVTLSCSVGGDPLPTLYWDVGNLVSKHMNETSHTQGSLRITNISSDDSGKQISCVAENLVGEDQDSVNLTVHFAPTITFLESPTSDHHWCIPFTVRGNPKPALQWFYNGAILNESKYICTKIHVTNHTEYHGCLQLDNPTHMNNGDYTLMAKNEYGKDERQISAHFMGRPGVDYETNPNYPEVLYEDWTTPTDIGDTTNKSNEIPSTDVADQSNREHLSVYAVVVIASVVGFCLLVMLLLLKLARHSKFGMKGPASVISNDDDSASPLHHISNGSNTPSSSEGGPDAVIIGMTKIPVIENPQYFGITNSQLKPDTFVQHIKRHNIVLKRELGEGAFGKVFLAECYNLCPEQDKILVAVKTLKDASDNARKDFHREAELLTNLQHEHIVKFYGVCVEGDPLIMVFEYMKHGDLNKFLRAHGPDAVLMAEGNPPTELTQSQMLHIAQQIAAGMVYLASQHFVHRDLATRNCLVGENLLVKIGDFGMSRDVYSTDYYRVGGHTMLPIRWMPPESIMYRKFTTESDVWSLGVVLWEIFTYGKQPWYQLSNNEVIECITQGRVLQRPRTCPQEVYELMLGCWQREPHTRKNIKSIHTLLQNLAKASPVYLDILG

Substance: brain derived neurotrophic factor (BDNF) (from UniProt P23560 129-247) (ligand)
- TrkB phosphorylation in mouse embryonic stem cell line [1]: 2 nM
- signaling in human TrkB reporter cell [2]: 2 nM
